# Reference: PMC7698748
# B1: soluble recombinant human DPP4 (residues 29-766), His6-tagged, P27487 29-766 (enzyme)
# chain: NKGTDDATADSRKTYTLTDYLKNTYRLKLYSLRWISDHEYLYKQENNILVFNAEYGNSSVFLENSTFDEFGHSINDYSISPDGQFILLEYNYVKQWRHSYTASYDIYDLNKRQLITEERIPNNTQWVTWSPVGHKLAYVWNNDIYVKIEPNLPSYRITWTGKEDIIYNGITDWVYEEEVFSAYSALWWSPNGTFLAYAQFNDTEVPLIEYSFYSDESLQYPKTVRVPYPKAGAVNPTVKFFVVNTDSLSSVTNATSIQITAPASMLIGDHYLCDVTWATQERISLQWLRRIQNYSVMDICDYDESSGRWNCLVARQHIEMSTTGWVGRFRPSEPHFTLDGNSFYKIISNEEGYRHICYFQIDKKDCTFITKGTWEVIGIEALTSDYLYYISNEYKGMPGGRNLYKIQLSDYTKVTCLSCELNPERCQYYSVSFSKEAKYYQLRCSGPGLPLYTLHSSVNDKGLRVLEDNSALDKMLQNVQMPSKKLDFIILNETKFWYQMILPPHFDKSKKYPLLLDVYAGPCSQKADTVFRLNWATYLASTENIIVASFDGRGSGYQGDKIMHAINRRLGTFEVEDQIEAARQFSKMGFVDNKRIAIWGWSYGGYVTSMVLGSGSGVFKCGIAVAPVSRWEYYDSVYTERYMGLPTPEDNLDHYRNSTVMSRAENFKQVEYLLIHGTADDNVHFQQSAQISKALVDVGVDFQAMWYTDEDHGIASSTAHQHIYTHMSHFIKQCFSLP
# Molecular target: soluble trimeric SARS-CoV-2 spike protein (residues 1-1208) (SARS-CoV-2), P0DTC2
# Experiment: SPR
# Details: remark: other sources report otherwise
binder,measurement,value
B1,Kd,> 10 µM
